The text below walks through data of PMC6414520, “CryoEM structure of adenovirus type 3 fibre with desmoglein 2 shows an unusual mode of receptor engagement” (Nature Communications, 2019).

Series [1] deals with human adenovirus type 3 fibre knob (HAd3K), fibre residues 124-319, co-expressed with DSG2 EC2-EC3 (human adenovirus type 3) (UniProt P04501). Nature of the series: cryo-EM structure; complex co-expressed in E. coli and co-purified (Ni-NTA, SEC); 150 mM NaCl, 3 mM CaCl2, 10 mM Tris-Cl pH 8.0; Volta phase plate; particles with one or two EC2-EC3 modules per knob trimer sorted by classification.

Series [2] deals with the molecule itself. The series is described as above.

Turning to “human desmoglein 2 EC2-EC3 domains (DSG2 residues 100-337), co-expressed with HAd3K in E. coli (domain or fragment)”, in series [1], the stoichiometry N (DSG2 per knob trimer) is 2 and the stoichiometry N (receptor per knob trimer) turned out to be 1.

B1: human adenovirus type 3 fibre knob (HAd3K), fibre residues 124-319, co-expressed with DSG2 EC2-EC3 (domain or fragment)
chain: NSIALKNNTLWTGPKPEANCIIEYGKQNPDSKLTLILVKNGGIVNGYVTLMGASDYVNTLFKNKNVSINVELYFDATGHILPDSSSLKTDLELKYKQTADFSARGFMPSTTAYPFVLPNAGTHNENYIFGQCYYKASDGALFPLEVTVMLNKRLPDSRTSYVMTFLWSLNAGLAPETTQATLITSPFTFSYIREDD
notes: fibre protein of human adenovirus type 3, knob, fibre residues 124-319; Trimer; also called HAd3 fibre knob; HAdK3; source: E. coli Rosetta(DE3)pLysS, pETDuet, co-expressed with EC2-EC3, complex purified (Ni-NTA, SEC)
Broadly, the stoichiometry N is a count of units in the complex or per binding partner. Regarding B1, the “stoichiometry N” value in series [2] came to 3.
